{"source": "patent US20150010525A1", "about": "“Catalytic Tagging System to Study Macro-Molecular Interactions Using Engineered Ubiquitin Ligase and Ubiquitin-Like Proteins to Facilitate Substrate Identification” (THE REGENTS OF THE UNIVERSITY OF CALIFORNIA, priority 2012, published 2015)", "key": {"[1]": {"test_system": "proteasome", "experiment": "PGAM5(Δ24) ubiquitination in HeLa cells", "format": "cell-based", "details": "HA-Ubiquitin and PGAM5(Δ24)-Myc", "description": "HeLa cells are transiently co-transfected with HA-Ubiquitin, PGAM5(Δ24)-Myc, with or without XIAP or the treatment of MG132. Ubiquitination of PGAM5(Δ24)-Myc are addressed by immunoprecipitating with Myc antibody then blotting with HA antibody.\nHeLa cells were transfected with Lipofectamine 2000 (Invitrogen). Cells were lysed either in M-PER mammalian protein extraction buffer (Thermo) or NP40 buffer (50 mM HEPES pH 7.4, 150 mM NaCl, 1% NP40), supplemented with protease inhibitor cocktail (Thermo). 10% SDS-polyacrylamide gel (PAGE) combined with MOPS running buffer was used to separate full length PGAM5 from the truncated form for immuno-blotting analysis. 4-12% SDS-PAGE gels were generally used for all other analysis. Immuno-precipitation with anti-Myc tag antibody (cell signaling) was performed with a standard procedure using manufacture's instructions."}, "[2]": {"test_system": "Jurkat and HeLa cells", "experiment": "Cytosolic PGAM5(Δ24) immunoblot in apoptotic cells", "format": "cell-based", "details": "1 μM STS, 4 hours"}, "[3]": {"target": "T1, GST-XIAP (Homo sapiens, UniProt P98170)", "T1 construct": "made in house", "T1 sequence (P98170 whole entry)": "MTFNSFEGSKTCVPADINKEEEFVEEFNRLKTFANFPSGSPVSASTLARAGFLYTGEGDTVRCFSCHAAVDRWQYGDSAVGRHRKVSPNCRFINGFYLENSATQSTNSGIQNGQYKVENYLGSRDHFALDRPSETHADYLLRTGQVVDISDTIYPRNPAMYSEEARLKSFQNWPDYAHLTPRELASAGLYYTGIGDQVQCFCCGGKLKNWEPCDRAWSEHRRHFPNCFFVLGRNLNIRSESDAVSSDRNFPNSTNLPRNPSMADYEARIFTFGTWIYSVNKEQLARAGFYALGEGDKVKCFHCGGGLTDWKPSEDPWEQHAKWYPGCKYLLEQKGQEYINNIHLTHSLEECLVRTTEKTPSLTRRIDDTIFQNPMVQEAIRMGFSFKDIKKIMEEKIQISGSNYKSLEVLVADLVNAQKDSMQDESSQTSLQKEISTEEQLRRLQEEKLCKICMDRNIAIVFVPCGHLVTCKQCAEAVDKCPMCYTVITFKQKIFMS", "experiment": "In vitro GST pull down", "format": "binding", "details": "recombinant proteins", "text": "(§1) FIG. 12 illustrates the identification of the proteolytic form of PGAM5 as an XIAP and cIAP1 substrate in vitro. […] Overall, 15 unique peptides from PGAM5 were recovered and account for 43% of the entire protein sequence. (B) An example of LC-MS/MS spectrum from endogenous PGAM5 N-terminal peptide after subtiligase labeling and positive enrichment. A non-natural amino acid, 2-aminobutyric acid (Abu), is a designed tag showing characteristic labeling by subtiligase. (C) PGAM5 is cleaved into a truncated form in cells. Jurkat cells were transiently transfected with C-terminal Myc tagged full length PGAM5 or PGAM5 (Δ2-24). […] (D) N-terminal amino acid sequence alignment of PGAM5(Δ24) and other known evolutionarily conserved IBM sequences. Reaper, Hid, and Grim are Drosophila proteins that bind DIAP1, the Drosophila IAP. Amino acids are colored according to their chemical properties. (E) XIAP binds PGAM5(Δ24) but not the full length PGAM5. Recombinant GST fused XIAP, PGAM5(FL), and PGAM5(Δ24) were used for in vitro GST pull down experiments. (F) PGAM5(Δ24) binds to XIAP and cIAP1 independent of the RING domain. […] The resins were washed and proteins were eluted and analyzed with SDSPAGE and coomassie blue staining. […] The ubiquitination assay was performed in vitro and PGAM5 is detected with an anti-His antibody."}, "[4]": {"target": "XIAP (Homo sapiens, UniProt P98170)", "sequence (P98170 whole entry)": "as above", "experiment": "In vitro PGAM5 ubiquitination assay with XIAP", "format": "biochemical", "details": "50 nM UBE1, 200 nM UbcH5b, 700 nM XIAP, 1.5 μM PGAM5-His6", "text": "as §1, with “antibody. […]” for “antibody.”"}, "[5]": {"target": "T2, cIAP1 (Homo sapiens, UniProt Q13490)", "T2 construct": "expressed in transfected cells; host or cells: HEK293", "T2 sequence (Q13490 whole entry)": "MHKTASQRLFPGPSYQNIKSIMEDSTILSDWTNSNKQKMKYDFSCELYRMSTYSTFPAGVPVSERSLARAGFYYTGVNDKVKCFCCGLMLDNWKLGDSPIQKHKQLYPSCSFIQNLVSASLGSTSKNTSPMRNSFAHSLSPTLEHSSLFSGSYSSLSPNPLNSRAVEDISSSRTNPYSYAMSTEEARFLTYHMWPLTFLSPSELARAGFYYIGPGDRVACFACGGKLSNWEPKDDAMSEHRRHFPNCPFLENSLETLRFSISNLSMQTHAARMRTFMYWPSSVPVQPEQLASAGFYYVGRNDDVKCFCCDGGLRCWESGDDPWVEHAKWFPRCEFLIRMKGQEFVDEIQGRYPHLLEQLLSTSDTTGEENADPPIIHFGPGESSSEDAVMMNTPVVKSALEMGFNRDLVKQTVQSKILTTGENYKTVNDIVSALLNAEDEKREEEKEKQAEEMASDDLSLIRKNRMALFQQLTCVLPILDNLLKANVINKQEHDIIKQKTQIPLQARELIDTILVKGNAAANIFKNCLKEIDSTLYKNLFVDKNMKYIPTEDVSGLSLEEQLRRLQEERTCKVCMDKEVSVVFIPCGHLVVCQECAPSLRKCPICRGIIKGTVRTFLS", "experiment": "In vitro PGAM5 ubiquitination assay with cIAP1", "format": "biochemical", "details": "50 nM UBE1, 200 nM UbcH5b, 700 nM cIAP1, 1.5 μM PGAM5-His6", "text": "as §1, with “antibody. […]” for “antibody.”"}, "[6]": {"target": "T2, cIAP1", "experiment": "Co-immunoprecipitation in HEK293 cells", "format": "cell-based", "details": "Flag-cIAP1 co-transfection, anti-Myc IP", "protocol": "FIG. 13 illustrates functional studies of PGAM5 in cells. (A) PGAM5(Δ24) binds XIAP and cIAP1 in vivo. On the left, HEK293 cells were cotransfected with Flag-cIAP1 and PGAM5(FL)-Myc or PGAM5(Δ24)-Myc. Total cell lysates were analyzed by immune-blotting with anti-Flag and anti-Myc antibodies (bottom two panels). Anti-Myc immune-precipitates (IP) were subjected to immunoblot analysis using anti-Myc and anti-Flag antibodies (top two panels). On the right, PGAM5(Δ24)-Myc was transiently expressed in HEK293 cells. 36 hours after transfection, cells were lysed and subjected for Immuno-precipitation with either anti-Myc antibody or an isotype control antibody (mouse IgG). Proteins in the whole cell lysate (bottom three panels) and proteins that bind to the antibody conjugated sepharose beads (top three panels) were assayed with immunoblotting. An asterisk indicates the position of the immunoglobulin heavy chain. (B) XIAP and cIAP1 stimulate PGAM5(Δ24) ubiquitination in vivo. […] 24 hours after transfection, cell viability was measured by Annexin V staining. […] Error bars represent SEM calculated from triplicate experiments. […] Cell viability is then immediately measured by CellTiter-Glo luminescent assay. […] PGAM5 levels are analyzed with anti-Myc immune-blotting before STS treatment. Error bars represent SEM calculated from triplicate samples. […]"}}, "note": "Where a SMILES comes first, the peptide text is derived from it. The star is where a group is joined. Cbz = O=C(OCc1ccccc1)*"}
{"molecule": "CC(C)C[C@@H](C=O)NC(=O)[C@H](CC(C)C)NC(=O)[C@H](CC(C)C)NC(=O)OCc1ccccc1", "note": "[MG132] (Cbz-Leu-Leu-Leu-aldehyde)", "values": [{"measurement": "level of ubiquitination of PGAM5(Δ24)", "setting": "[1]", "value": "increased"}]}
{"molecule": "CN[C@@H]1C[C@H]2O[C@@](C)([C@@H]1OC)n1c3ccccc3c3c4c(c5c6ccccc6n2c5c31)C(=O)NC4", "note": "[STS, staurosporin]", "values": [{"measurement": "cytosolic level of PGAM5(Δ24)", "setting": "[2]", "value": "significant increase in PGAM5(Δ24)"}]}
{"molecule": "PGAM5(Δ24): cleaved form of PGAM5 lacking the first 24 residues, neo-IBM sequence starting with Ala25 (protein, UniProt Q96HS1 25-289, looked up, fragment) AVAVGKPRAGGDAEPRPAEPPAWAGGARPGPGVWDPNWDRREPLSLINVRKRNVESGEEELASKLDHYKAKATRHIFLIRHSQYHVDGSLEKDRTLTPLGREQAELTGLRLASLGLKFNKIVHSSMTRAIETTDIISRHLPGVCKVSTDLLREGAPIEPDPPVSHWKPEAVQYYEDGARIEAAFRNYIHRADARQEEDSYEIFICHANVIRYIVCRALQFPPEGWLRLSLNNGSITHLVIRPNGRVALRTLGDTGFMPPDKITRS", "values": [{"measurement": "binding to XIAP (pull down)", "setting": "[3]", "value": "pulled down"}, {"measurement": "ubiquitination by XIAP", "setting": "[4]", "value": "ubiquitinates"}, {"measurement": "ubiquitination by cIAP1", "setting": "[5]", "value": "ubiquitinates"}, {"measurement": "binding to cellular cIAP1", "setting": "[6]", "value": "specifically binds"}]}
